This is an account of results in patent US20140120095A1 (Boehringer Ingelheim, published 2014).

Test [1] addresses T1, mouse DLL4 expressed on CHO cells (mouse, UniProt Q9JI71 27-686).
T1 construct: whole, on cells; also called mDLL4; CHO-mDLL4
In words: competition FMAT CHO-mDLL4; summary table.

For test [2], the target named is T2, recombinant mouse DLL4 (C-terminally His-tagged extracellular domain, R&D Systems) (mouse, UniProt Q9JI71 27-532).
T2 construct: extracellular domain; also called rmDLL4; mDLL4
In words: SPR (Biacore), rmDLL4. (In general: In SPR one partner is held on a chip, and binding of the other changes the refractive index at the surface.)

The target in test [3] is T3, recombinant human DLL4 (C-terminally His-tagged extracellular domain, R&D Systems) (human, UniProt Q9NR61 25-522, biotinylated in the competition ELISA).
T3 construct: also called rhDLL4; hDLL4
In words: SPR (Biacore); summary table.

The target of test [4] is T2, recombinant mouse DLL4 (C-terminally …). Briefly: SPR (Biacore); summary table.
Test [5] deals with T1, mouse DLL4 expressed on CHO cells. Briefly: competition FMAT, labelled hNotch1-Fc on CHO-mDLL4 cells.
In test [6] the target is T3, recombinant human DLL4 (C-terminally …). In words: competition ELISA, biotinylated hDLL4 to coated hNotch1-Fc. For orientation: ELISA stands for enzyme-linked immunosorbent assay.
The target of test [7] is T4, human DLL4 expressed on cells (CHO-hDLL4; HEK293-hDLL4) (human, UniProt Q9NR61 27-685).
T4 construct: full length human DLL4 overexpressed on CHO cells (FMAT, FACS) or HEK293 cells (reporter assay)
Briefly: competition FMAT CHO-hDLL4; summary table.

The target in test [8] is T3, recombinant human DLL4 (C-terminally …). In words: competition ELISA hDLL4/hNotch1-Fc; summary table.
Test [9] concerns the target T1, mouse DLL4 expressed on CHO cells. Briefly: FACS; summary table, column taken as mDLL4. (In general: A flow cytometer gives signals particle by particle.)
Test [10] deals with T4, human DLL4 expressed on cells …. Briefly: FACS on CHO-hDLL4 cells.
In test [11] the target is T1, mouse DLL4 expressed on CHO cells. In words: FACS on CHO-mDLL4 cells.
The target in test [12] is T3, recombinant human DLL4 (C-terminally …). In words: SPR (Biacore), rhDLL4. Summed up:
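SPR with DLL4 on the chip; VHH or Fab injected at 10-300 nM for 2 minutes, 20 min dissociation, in HBS-N pH7.4, regenerating with glycine pH1.5 and HCl. KD derived from association and dissociation rate constants by 1:1 Langmuir fit where the curves allowed.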

The target in test [13] is T4, human DLL4 expressed on cells …. Briefly: FACS; summary table, column taken as hDLL4.
The target of test [14] is T5, cynomolgus DLL4 expressed on CHO cells (cynomolgus, UniProt Q9NR61 27-685 (human entry)).
T5 construct: also called cDLL4; CHO-cDLL4
T5 chain: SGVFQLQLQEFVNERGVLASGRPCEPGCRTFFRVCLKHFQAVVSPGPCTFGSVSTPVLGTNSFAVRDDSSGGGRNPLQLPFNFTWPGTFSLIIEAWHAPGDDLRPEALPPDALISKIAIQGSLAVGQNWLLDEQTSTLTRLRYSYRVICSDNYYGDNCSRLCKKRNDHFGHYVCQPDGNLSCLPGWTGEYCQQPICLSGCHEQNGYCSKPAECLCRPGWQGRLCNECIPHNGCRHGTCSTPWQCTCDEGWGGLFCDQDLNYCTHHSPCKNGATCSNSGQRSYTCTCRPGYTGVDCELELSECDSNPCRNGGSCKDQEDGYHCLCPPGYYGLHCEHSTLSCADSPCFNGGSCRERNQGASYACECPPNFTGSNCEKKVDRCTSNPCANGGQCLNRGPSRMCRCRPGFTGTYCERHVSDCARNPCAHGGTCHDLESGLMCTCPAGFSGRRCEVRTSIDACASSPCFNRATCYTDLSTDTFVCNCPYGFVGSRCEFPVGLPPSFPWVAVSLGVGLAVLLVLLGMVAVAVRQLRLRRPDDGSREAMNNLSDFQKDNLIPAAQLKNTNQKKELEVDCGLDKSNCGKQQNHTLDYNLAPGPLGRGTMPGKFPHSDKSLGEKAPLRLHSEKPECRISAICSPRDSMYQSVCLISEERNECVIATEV
In words: FACS; summary table, column taken as cDLL4.

Test [15] addresses T5, cynomolgus DLL4 expressed on CHO cells. Briefly: FACS on CHO-cDLL4 cells.
Test [16] deals with T4, human DLL4 expressed on cells …. Briefly: cell-based or functional assay.
The target is the same in test [17]. In words: competition FMAT, labelled hNotch1-Fc on CHO-hDLL4 cells.

T1 sequence (Q9JI71 27-686): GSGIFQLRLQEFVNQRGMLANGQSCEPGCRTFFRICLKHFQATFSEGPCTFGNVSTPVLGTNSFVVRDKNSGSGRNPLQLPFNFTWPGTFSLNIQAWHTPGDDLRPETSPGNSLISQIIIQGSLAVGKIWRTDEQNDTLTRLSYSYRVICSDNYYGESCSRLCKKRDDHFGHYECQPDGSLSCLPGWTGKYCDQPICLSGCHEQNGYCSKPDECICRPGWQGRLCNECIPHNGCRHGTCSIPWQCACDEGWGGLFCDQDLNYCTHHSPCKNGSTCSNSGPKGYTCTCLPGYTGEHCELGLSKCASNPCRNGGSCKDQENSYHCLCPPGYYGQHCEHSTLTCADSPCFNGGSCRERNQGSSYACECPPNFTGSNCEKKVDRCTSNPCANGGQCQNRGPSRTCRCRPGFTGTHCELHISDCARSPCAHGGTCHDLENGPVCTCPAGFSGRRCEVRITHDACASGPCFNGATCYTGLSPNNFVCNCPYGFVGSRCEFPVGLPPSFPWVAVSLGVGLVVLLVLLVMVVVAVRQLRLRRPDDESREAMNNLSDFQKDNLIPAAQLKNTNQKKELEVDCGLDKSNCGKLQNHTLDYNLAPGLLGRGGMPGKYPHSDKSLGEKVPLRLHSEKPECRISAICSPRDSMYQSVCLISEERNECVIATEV
T2 sequence (Q9JI71 27-532): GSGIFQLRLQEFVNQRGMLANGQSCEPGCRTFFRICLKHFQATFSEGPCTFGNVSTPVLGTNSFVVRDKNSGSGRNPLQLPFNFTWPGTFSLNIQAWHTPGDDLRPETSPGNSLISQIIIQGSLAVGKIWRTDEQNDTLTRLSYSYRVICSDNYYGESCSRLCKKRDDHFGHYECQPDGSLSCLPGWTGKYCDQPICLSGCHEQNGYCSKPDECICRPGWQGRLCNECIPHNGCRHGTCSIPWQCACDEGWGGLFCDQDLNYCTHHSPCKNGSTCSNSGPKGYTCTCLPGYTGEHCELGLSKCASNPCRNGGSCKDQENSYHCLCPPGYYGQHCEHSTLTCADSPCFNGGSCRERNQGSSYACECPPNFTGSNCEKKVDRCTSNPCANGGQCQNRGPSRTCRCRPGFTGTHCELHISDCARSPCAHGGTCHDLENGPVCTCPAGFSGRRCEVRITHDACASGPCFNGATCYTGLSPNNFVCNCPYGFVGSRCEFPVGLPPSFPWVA

B1: DLLBII133A09 (VHH, not shown: small tags and cut ends)
VHH: EVQLVESGGGLVQPGGSLRLSCAASGFTFGSYDMSWVRRSPGKGPEWVSAINSGGGSTYYADYVKGRFTISRDNAKNTLYLQMNSLKPEDTAVYYCAADRYIWARQGEYWGAYAYDYWGQGTQVTVSS
As for B1, the concentration for half-maximal inhibition (IC50) in test [1] was determined as 18.6 nM; in [5], 18.6 nM; in test [6], 1.5 nM; in test [7] it was 6.6 nM; in [8] it was 1.5 nM; in test [17], 6.6 nM. Further, the Kd in [2] worked out at 7.8 nM; in test [3], 2.1 nM; in test [4] it was 7.8 nM; in test [12], 2.1 nM. In addition, the koff in test [2] turned out to be 0.0027 s⁻¹; in [12], 0.0009 s⁻¹. Moreover, the kon in test [2] was determined as 350000 M⁻¹ s⁻¹; in [12], 440000 M⁻¹ s⁻¹. For the same molecule, the EC50 in test [9] was found to be 1.7 nM; in [10], 7.2 nM; in test [11] it was 1.7 nM; in test [13], 7.2 nM; in test [14] it was 2.3 nM; in test [15], 2.3 nM. In addition, the “IC50, DLL4-mediated reporter assay” value in test [16] is 87 nM.

B2: DLLBII133G05 (VHH, not shown: small tags and cut ends)
VHH: EVQLVESGGGLVQPGGSLRLSCAASGFTFGSYDMSWVRRSPGKGPEWVSAINSGGGSTYYTDYVKGRFTISRDNAKNTLYLQMNSLKPEDTAVYYCAADRYIWARQGEYWGAYAYDYWGQGTQVTVSS
As to B2, the IC50 in [1] turned out to be 12 nM; in [5], 12 nM; in test [6], 2 nM; in test [7], 5.9 nM; in test [8], 2 nM; in test [17], 5.9 nM. Moreover, the dissociation constant Kd was determined as 3.4 nM in [2], 0.8 nM in test [3], 3.4 nM in test [4] and 0.8 nM in test [12]. Further, the off-rate (koff) in test [2] was 0.0016 s⁻¹; in test [12], 0.00047 s⁻¹. In addition, the kon in test [2] was found to be 470000 M⁻¹ s⁻¹; in test [12], 590000 M⁻¹ s⁻¹. Besides, the EC50 in test [9] is 2.8 nM; in test [10], 8.5 nM; in test [11], 2.8 nM; in test [13], 8.5 nM; in [14] it was 2.7 nM; in [15] it was 2.7 nM. In addition, the “IC50, DLL4-mediated reporter assay” value in [16] is 104 nM.

B3: DLLBII136C07 (VHH, not shown: small tags and cut ends)
VHH: EVQLVESGGGLVQPGGSLRLSCAASGFTFGSYDMSWVRRSPGKGPEWVSSINSGGGSTYYADYVKGRFTISRDNAKNTLYLQMNSLKPEDTAVYYCAADRYIWARQGEYWGAYEYDYWGQGTQVTVSS
Consider B3, for which the IC50 was 31.2 nM in test [1]; 31.2 nM in test [5]; 1.4 nM in test [6]; 8 nM in [7]; 1.4 nM in test [8]; 8 nM in test [17]. Moreover, the Kd stood at 2.6 nM in test [2], 0.6 nM in test [3], 2.6 nM in test [4] and 0.6 nM in test [12]. Besides, the koff in [2] was 0.0013 s⁻¹; in test [12], 0.00039 s⁻¹. Besides, the kon worked out at 500000 M⁻¹ s⁻¹ in test [2] and 620000 M⁻¹ s⁻¹ in test [12]. In addition, the EC50 in [9] is 8.3 nM; in test [10], 10.9 nM; in test [11], 8.3 nM; in test [13], 10.9 nM; in test [14], 3.5 nM; in test [15], 3.5 nM. In addition, in [16], the “IC50, DLL4-mediated reporter assay” value was 226 nM.

What is called IC50 is the midpoint of a concentration-inhibition curve. By Kd is commonly meant the constant that tells how readily two partners part at equilibrium. For orientation: koff means the first-order rate constant of dissociation. Broadly, the kon is the rate constant with which the complex forms. As a reminder, the EC50 is the concentration needed to bring the measured effect to its halfway point.
